± gives the uncertainty stated by the source.
B1: Zinc finger MYM-type protein 3, residues 405 to 444; numbered along this chain, Q14202 (parent)
chain: DATRCSICQKTGEVLHEVSNGSVVHRLCSDSCFSKFRANK

Variants of: B1
Assay: abundance fitness (aPCA) (normalised: wild type 0, dead -1); higher = more abundant; growth selection in yeast, the domain comes from the species named
Conditions: Homo sapiens

Abundance fitness of substitutions, site by site:
C5: Y -0.97 ± 0.17 | Q -1.05 ± 0.089 | W -1.06 ± 0.098 | P -1.02 ± 0.17 | G -0.914 ± 0.068 | T -0.836 ± 0.088 | S -0.922 ± 0.097 | F -0.776 ± 0.14 | V -0.999 ± 0.082 | D -0.79 ± 0.22 | A -1.29 ± 0.094 | L -0.835 ± 0.08
G12: N -0.511 ± 0.17 | F -0.414 ± 0.15 | T -0.092 ± 0.067 | M -0.089 ± 0.066 | D -0.311 ± 0.11 | P -0.639 ± 0.082 | H -0.215 ± 0.079 | Q -0.228 ± 0.066 | E -0.083 ± 0.077 | I -0.21 ± 0.11 | S -0.115 ± 0.063 | R -0.165 ± 0.056 | V -0.137 ± 0.062 | L -0.245 ± 0.061 | W -0.639 ± 0.074
V14: F -0.068 ± 0.063 | Q -0.142 ± 0.063 | T -0.033 ± 0.063 | W -0.561 ± 0.066 | K -0.43 ± 0.069 | G -0.08 ± 0.052 | N -0.087 ± 0.092 | I -0.029 ± 0.097 | H -0.667 ± 0.12 | R -0.374 ± 0.054 | Y -0.461 ± 0.14 | M -0.029 ± 0.065 | P -0.057 ± 0.067 | C -0.453 ± 0.087 | D -0.228 ± 0.075 | E -0.453 ± 0.073 | S -0.185 ± 0.057 | A -0.173 ± 0.056 | L -0.344 ± 0.056
K10: D -0.49 ± 0.1 | S -0.231 ± 0.06 | G -0.09 ± 0.052 | Y -0.436 ± 0.16 | E -0.088 ± 0.063 | L -0.273 ± 0.056 | M -0.232 ± 0.083 | N -0.559 ± 0.17 | T -0.277 ± 0.079 | Q -0.208 ± 0.071 | V -0.649 ± 0.074 | A -0.293 ± 0.061 | F -0.595 ± 0.46 | C -0.367 ± 0.07 | R -0.098 ± 0.052 | I -0.417 ± 0.11 | W -0.479 ± 0.06 | P -0.877 ± 0.1
E13: D -0.2 ± 0.091 | I -0.448 ± 0.11 | N -0.216 ± 0.086 | T -0.111 ± 0.07 | L -0.391 ± 0.057 | G -0.271 ± 0.056 | P -0.236 ± 0.079 | R -0.19 ± 0.051 | K -0.049 ± 0.075 | M -0.074 ± 0.069 | Q -0.052 ± 0.072 | V -0.298 ± 0.057 | W -0.696 ± 0.062 | F 0.036 ± 0.1 | C -0.855 ± 0.078 | S -0.201 ± 0.054 | H -0.204 ± 0.091
T3: A -0.366 ± 0.057 | K 0.272 ± 0.057 | P -0.561 ± 0.067 | C -0.726 ± 0.1 | Y -0.025 ± 0.075 | N 0.025 ± 0.091 | R -0.047 ± 0.052 | F -0.181 ± 0.078 | Q 0.205 ± 0.061 | W -0.085 ± 0.058 | L -0.061 ± 0.056 | I -0.028 ± 0.075 | M 0.426 ± 0.061 | D -0.088 ± 0.067 | V -0.388 ± 0.056 | S -0.06 ± 0.058 | G 0.091 ± 0.054
D1: A -0.182 ± 0.089 | L -0.07 ± 0.11 | K 0.157 ± 0.079 | N 0.142 ± 0.13 | P -0.32 ± 0.1 | R -0.165 ± 0.065 | M 0.112 ± 0.098 | E 0.331 ± 0.076 | F -0.219 ± 0.11 | T 0.303 ± 0.12 | Q -0.251 ± 0.12 | V 0.083 ± 0.065 | G 0.154 ± 0.054 | S -0.054 ± 0.09 | W -0.504 ± 0.23
A2: V -0.603 ± 0.068 | Q 0.285 ± 0.069 | M 0.48 ± 0.064 | H 0.041 ± 0.11 | F 0.186 ± 0.14 | C 0.305 ± 0.071 | R -0.089 ± 0.053 | D 0.305 ± 0.067 | T 0.35 ± 0.062 | E -0.013 ± 0.063 | W -0.204 ± 0.08 | I 0.327 ± 0.11 | G -0.186 ± 0.055 | K 0.243 ± 0.08 | N 0.461 ± 0.072 | P -0.225 ± 0.068
T11: W -0.627 ± 0.072 | N -0.14 ± 0.089 | H 0.088 ± 0.12 | L -0.116 ± 0.066 | A -0.27 ± 0.06 | S -0.315 ± 0.069 | F -0.221 ± 0.15 | P -0.499 ± 0.078 | C -0.519 ± 0.12 | D -0.104 ± 0.11 | V -0.452 ± 0.064 | I -0.203 ± 0.23 | Q -0.157 ± 0.077 | R -0.287 ± 0.058 | G -0.127 ± 0.055 | K -0.354 ± 0.088
Q9: V -0.803 ± 0.063 | C -0.215 ± 0.1 | K -0.05 ± 0.064 | P -0.606 ± 0.075 | W -0.234 ± 0.066 | M -0.123 ± 0.08 | E 0.023 ± 0.075 | T -0.195 ± 0.074 | G -0.16 ± 0.056 | Y -0.014 ± 0.27 | H -0.194 ± 0.085 | D -0.293 ± 0.11 | A -0.585 ± 0.072 | S -0.129 ± 0.057 | R -0.288 ± 0.054 | F -0.087 ± 0.075 | L -0.22 ± 0.058
I7: H -0.267 ± 0.11 | R -0.25 ± 0.057 | C -0.463 ± 0.092 | M -0.194 ± 0.072 | T -0.218 ± 0.077
